Columns and labels:
[1] = molecular target: monoclonal mouse IgG1 anti human CRP antibody B08; assay: swCNT-FET displacement of peptide 80715-Au nanoparticle complex from immobilised B08; CRP 1.56 nM in PBS
[2] = molecular target: monoclonal mouse IgG1 anti human CRP antibody B08; assay: swCNT-FET displacement of peptide 80715-Au nanoparticle complex from immobilised B08; CRP 24 pM in PBS
[3] = molecular target: monoclonal mouse IgG1 anti human CRP antibody B08; assay: swCNT-FET displacement of peptide 80715-Au nanoparticle complex from immobilised B08; CRP 12.5 nM in PBS
[4] = molecular target: monoclonal mouse IgG1 anti human CRP antibody B08; assay: swCNT-FET displacement of peptide 80715-Au nanoparticle complex from immobilised B08; CRP 3 pM in PBS
[5] = molecular target: monoclonal mouse IgG1 anti human CRP antibody B08; assay: swCNT-FET displacement of peptide 80715-Au nanoparticle complex from immobilised B08; CRP 381 fM in PBS
[6] = molecular target: monoclonal mouse IgG1 anti human CRP antibody B08; assay: swCNT-FET displacement of peptide 80715-Au nanoparticle complex from immobilised B08; CRP 100 nM in PBS
[7] = molecular target: monoclonal mouse IgG1 anti human CRP antibody B08; assay: swCNT-FET displacement of peptide 80715-Au nanoparticle complex from immobilised B08; CRP 800 nM in PBS
[8] = molecular target: monoclonal mouse IgG1 anti human CRP antibody B08; assay: swCNT-FET displacement of peptide 80715-Au nanoparticle complex from immobilised B08; CRP 195 pM in PBS

- ΔV (V) [1]: -0.02 V
- ΔV (V) [2]: -0.016 V
- ΔV (V) [3]: -0.022 V
- ΔV (V) [4]: -0.013 V
- ΔV (V) [5]: -0.009 V
- ΔV (V) [6]: -0.024 V
- ΔV (V) [7]: -0.027 V
- ΔV (V) [8]: -0.017 V
B1: biomarker C-reactive protein (CRP) (protein, human, UniProt P02741 19-224, looked up)
chain: QTDMSRKAFVFPKESDTSYVSLKAPLTKPLKAFTVCLHFYTELSSTRGYSIFSYATKRQDNEILIFWSKDIGYSFTVGGSEILFEVPEVTVAPVHICTSWESASGIVEFWVDGKPRVRKSLKKGYTVGAEASIILGQEQDSFGGNFEGSQSLVGDIGNVNMWDFVLSPDEINTIYLGGPFSPNVLNWRALKYEVQGEVFTKPQLWP

Source: patent publication US20220252583A1
